These results are taken from article PMC4990751 (Molecules and Cells, 2016).

This series deals with the molecule itself. Nature of the series: SEC.

B1: T105C-PaAhpC (enzyme, Pseudomonas aeruginosa PAO1, UniProt Q9I6Z3 1-187, looked up)
chain: MSLINTQVQPFKVNAFHNGKFIEVTEESLKGKWSVLIFMPAAFTFNCPTEIEDAANNYGEFQKAGAEVYIVTTDTHFSHKVWHETSPAVGKAQFPLIGDPTHQLCNAFGVHIPEEGLALRGTFVINPEGVIKTVEIHSNEIARDVGETVRKLKAAQYTAAHPGEVCPAKWKEGEKTLAPSLDLVGKI
B1: the “stoichiometry N” value was 10.
